In experiment [1] the target is T1, human DLL3 (antigen of Example 30) (human, UniProt Q9NYJ7 27-492, limits assumed).
T1 construct: also called hDLL3
T1 sequence (looked up): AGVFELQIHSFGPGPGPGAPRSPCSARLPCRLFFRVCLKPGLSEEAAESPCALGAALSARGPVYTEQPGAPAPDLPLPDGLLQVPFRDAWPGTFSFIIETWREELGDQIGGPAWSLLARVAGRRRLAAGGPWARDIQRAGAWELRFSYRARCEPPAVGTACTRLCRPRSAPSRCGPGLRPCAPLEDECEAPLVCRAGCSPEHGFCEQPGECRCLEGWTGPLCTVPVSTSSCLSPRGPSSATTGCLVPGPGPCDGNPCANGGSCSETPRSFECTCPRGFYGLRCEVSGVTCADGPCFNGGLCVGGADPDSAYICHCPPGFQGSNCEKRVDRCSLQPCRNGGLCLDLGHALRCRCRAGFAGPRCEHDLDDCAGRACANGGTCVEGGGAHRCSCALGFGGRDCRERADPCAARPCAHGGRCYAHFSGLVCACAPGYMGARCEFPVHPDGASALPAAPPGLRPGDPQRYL
The experiment in a line: BLI (Octet), tetramer captured on AHC sensor, antigen as analyte.

The target of experiment [2] is T2, murine FOLR1 (antigen of the Octet assay) (murine, UniProt P35846 25-232, limits assumed).
T2 construct: also called mFOLR1
T2 sequence (P35846 25-232 limits assumed): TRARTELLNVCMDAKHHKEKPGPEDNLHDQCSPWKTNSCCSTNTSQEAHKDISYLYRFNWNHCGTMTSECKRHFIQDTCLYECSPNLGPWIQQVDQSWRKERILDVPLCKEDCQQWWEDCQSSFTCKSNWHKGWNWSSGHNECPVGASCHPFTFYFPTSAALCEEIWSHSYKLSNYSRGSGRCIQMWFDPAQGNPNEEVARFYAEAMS
The experiment is described as above.

The target in experiment [3] is T3, FOLR1 on cells (OVCAR3, OV-90) (UniProt P15328 25-234).
T3 construct: whole, on cells; also called FOLR1-positive OVCAR3 cells; FOLR1 expressing OV-90 cells
T3 sequence (P15328 25-234): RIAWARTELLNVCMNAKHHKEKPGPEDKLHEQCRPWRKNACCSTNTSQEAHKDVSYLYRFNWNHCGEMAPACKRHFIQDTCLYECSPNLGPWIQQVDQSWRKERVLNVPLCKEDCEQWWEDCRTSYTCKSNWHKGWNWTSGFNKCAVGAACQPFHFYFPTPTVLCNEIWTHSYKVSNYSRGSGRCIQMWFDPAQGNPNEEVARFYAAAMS
The experiment in a line: flow cytometry on FOLR1 expressing OV-90 cells, Geomeans RL1-H against Conc (nM); linker not printed on the sheet, taken as the (GGS)3 parent of the conjugate [bottom panel].

Experiment [4] has as its target T3, FOLR1 on cells (OVCAR3, OV-90). The experiment is described as follows: binding to FOLR1-positive OVCAR3 cells.
The target in experiment [5] is T4, human FOLR1 (antigen of the Octet assay) (human, UniProt P15328 25-234, limits assumed).
T4 construct: also called hFOLR1
T4 sequence (P15328 25-234 limits assumed): as the sequence (P15328 25-234) above
The experiment in a line: BLI (Octet), tetramer captured on AHC sensor, antigen as analyte.

Experiment [6] has as its target FcγRIIIa (F176) (biotinylated, Acro Biosystems) (UniProt P08637 17-208, biotinylated). The experiment is described as follows: BLI, biotinylated FcγR on SA sensor.
Experiment [7] addresses T5, FcγRIIa (H167) (biotinylated, Acro Biosystems) (UniProt P12318 36-218, biotinylated).
T5 sequence (looked up): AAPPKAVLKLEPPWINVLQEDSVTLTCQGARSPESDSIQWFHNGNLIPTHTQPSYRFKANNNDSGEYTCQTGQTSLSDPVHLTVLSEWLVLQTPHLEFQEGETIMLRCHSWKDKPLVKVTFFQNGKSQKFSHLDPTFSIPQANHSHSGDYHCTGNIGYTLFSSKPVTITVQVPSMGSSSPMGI
The experiment is described as follows: BLI, biotinylated FcγR on SA sensor.

The target in experiment [8] is FcγRIIIa (V176) (biotinylated, Acro Biosystems) (UniProt P08637 17-208, biotinylated). The experiment in a line: BLI, biotinylated FcγR on SA sensor.
FcγRIIIa (V176) (biotinylated, Acro Biosystems), sequence (P08637 17-208 F176V limits assumed): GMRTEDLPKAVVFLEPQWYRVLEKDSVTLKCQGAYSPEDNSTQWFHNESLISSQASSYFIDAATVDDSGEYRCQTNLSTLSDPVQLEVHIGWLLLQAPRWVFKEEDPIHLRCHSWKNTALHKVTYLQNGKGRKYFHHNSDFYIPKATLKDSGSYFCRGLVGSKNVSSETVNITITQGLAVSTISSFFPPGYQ
Experiment [9] has as its target biotinylated hFcRn (Sino Biological, Cat #: CT071-H27H-B) (human, UniProt P55899 24-297; P61769 21-119, biotinylated). The experiment is described as follows: BLI (Octet), biotinylated hFcRn on SA sensor, pH 6.0, 2:1 heterogeneous ligand model.
The target in experiment [10] is T6, FcγRIIa (R167) (biotinylated, Acro Biosystems) (UniProt P12318 36-218, biotinylated).
T6 sequence (looked up): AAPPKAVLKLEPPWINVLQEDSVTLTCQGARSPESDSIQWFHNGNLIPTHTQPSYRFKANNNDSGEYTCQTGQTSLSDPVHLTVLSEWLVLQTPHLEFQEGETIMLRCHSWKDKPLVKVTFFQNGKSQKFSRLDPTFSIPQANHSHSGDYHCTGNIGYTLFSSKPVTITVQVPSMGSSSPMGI
The experiment is described as follows: BLI (Octet), biotinylated FcγR on SA sensor, steady state analysis.

The target of experiment [11] is FcγRI (biotinylated, Acro Biosystems) (UniProt P12314 16-288, biotinylated). The experiment is described as follows: BLI, biotinylated FcγR on SA sensor.
FcγRI (biotinylated, Acro Biosystems), sequence (P12314 16-288 limits assumed): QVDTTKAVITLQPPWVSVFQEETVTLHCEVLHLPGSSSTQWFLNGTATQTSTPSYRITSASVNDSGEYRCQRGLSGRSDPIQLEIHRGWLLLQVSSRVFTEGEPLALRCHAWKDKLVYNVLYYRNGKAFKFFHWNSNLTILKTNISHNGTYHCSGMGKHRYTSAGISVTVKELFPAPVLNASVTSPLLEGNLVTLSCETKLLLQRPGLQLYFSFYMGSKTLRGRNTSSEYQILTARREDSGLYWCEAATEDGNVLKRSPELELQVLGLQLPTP
In experiment [12] the target is T7, FcγRIIb/c (biotinylated, Acro Biosystems) (UniProt P31994 46-217, biotinylated).
T7 sequence (looked up): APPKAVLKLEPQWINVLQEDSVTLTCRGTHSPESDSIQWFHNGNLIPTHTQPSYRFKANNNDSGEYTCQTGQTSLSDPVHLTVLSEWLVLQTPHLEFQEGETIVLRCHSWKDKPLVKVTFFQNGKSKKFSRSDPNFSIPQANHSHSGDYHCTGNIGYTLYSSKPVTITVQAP
The experiment in a line: BLI (Octet), biotinylated FcγR on SA sensor, steady state analysis.

The source of these data is patent publication US20260137822A1 (ABDERA THERAPEUTICS, published 2026).

FcγRIIIa (F176) (biotinylated, Acro Biosystems), sequence (P08637 17-208 limits assumed): as the sequence (P08637 17-208 F176V limits assumed) above, with V160F counted along it

B1: Anti-FOLR1x2; Anti-DLL3x2; (GGS)3 tetramer (bispecific antibody)
chain (part 1 of 2): QVQLVESGGGLVQPGGSLRLSCAASGFTVSNSVMAWYRQTPGNEREFVAIINSIGITNYADSVKGRFTISRDNSKNTLYLQMNSLRAEDTAVYVCNRNFDRIYWGQGTLVTVSSGGSGGSGGSEVQLVESGGGEVQPGGSLRLSCAASGSIFSINAMGWYRQAPGKQRELVAGFTGDTNTIYAESVKGRFTISRDNAKNTVYLQMSSLRAEDTAVYYCAADVQLFSRDYEFYWGQGTLVTVKP
chain (part 2 of 2): not shown
notes: As m61 with the (GGS)3 linker; also called bispecific tetramer GGSx3; not shown: hinge
Consider B1, for which the binding result in [1] and in experiment [2] was “binds” in each case. In addition, in experiment [3], the half-maximal effective concentration (EC50 (read off the curve)) was roughly 0.003 µM.

B2: Anti-FOLR1x2; Anti-DLL3x2; (GGS)4 tetramer (bispecific antibody)
chain (part 1 of 2): QVQLVESGGGLVQPGGSLRLSCAASGFTVSNSVMAWYRQTPGNEREFVAIINSIGITNYADSVKGRFTISRDNSKNTLYLQMNSLRAEDTAVYVCNRNFDRIYWGQGTLVTVSSGGSGGSGGSGGSEVQLVESGGGEVQPGGSLRLSCAASGSIFSINAMGWYRQAPGKQRELVAGFTGDTNTIYAESVKGRFTISRDNAKNTVYLQMSSLRAEDTAVYYCAADVQLFSRDYEFYWGQGTLVTVKP
chain (part 2 of 2): not shown
notes: As m61 with the (GGS)4 linker; also called bispecific tetramer GGSx4; not shown: hinge
Regarding B2, the binding result in experiment [4], in [1], in [5] and in [2] was “binds” each time.

B3: Anti-FOLR1x2; Anti-DLL3x2; (GGGGS)3 tetramer (bispecific antibody)
chain (part 1 of 2): QVQLVESGGGLVQPGGSLRLSCAASGFTVSNSVMAWYRQTPGNEREFVAIINSIGITNYADSVKGRFTISRDNSKNTLYLQMNSLRAEDTAVYVCNRNFDRIYWGQGTLVTVSSGGGGSGGGGSGGGGSEVQLVESGGGEVQPGGSLRLSCAASGSIFSINAMGWYRQAPGKQRELVAGFTGDTNTIYAESVKGRFTISRDNAKNTVYLQMSSLRAEDTAVYYCAADVQLFSRDYEFYWGQGTLVTVKP
chain (part 2 of 2): not shown
notes: entry chosen by mutation status; also called bispecific tetramer GGGGSx3; not shown: hinge
In the case of B3, the binding result in experiment [4], in experiment [1], in experiment [5] and in [2] was “binds” in each case.

B4: H133 (Fc fusion)
chain (part 1 of 2): QVQLQESGGGSVQAGGSLKLTCAASGYIFNSCGMGWYRQSPGRERELVSRISGDGDTWHKESVKGRFTISQDNVKKTLYLQMNSLKPEDTAVYFCAVCYNLETYWGQGTQVTVSS
chain (part 2 of 2): APEAEGAPSVFLFPPKPKDTLMISRTPEVTCVVVDVSHEDPEVKFNWYVDGVEVHNAKTKPREEQYNSTYRVVSVLTVLHQDWLNGKEYKCKVSNKALPSSIEKTISKAKGQPREPQVYTLPPSREEMTKNQVSLTCLVKGFYPSDIAVEWESNGQPENNYKTTPPVLDSDGSFFLYSKLTVDKSRWQQGNVFSCSVMHEALHNHYTQKSLSLSPG
notes: not shown: hinge; copies: 2 + 2
In the case of B4, the binding result in [6], in [7] and in experiment [8] was “no binding” throughout. Further, the results for the Kd in [9] and in [10] were 0.0021 µM and 2.3 µM, respectively.

B5: D134 (Fc fusion)
chain (part 1 of 2): EVQLVESGGGEVQPGGSLRLSCAASGSIFSINAMGWYRQAPGKQRELVAGFTGDTNTIYAESVKGRFTISRDNAKNTVYLQMSSLRAEDTAVYYCAADVQLFSRDYEFYWGQGTLVTVKP
chain (part 2 of 2): APEAEGAPSVFLFPPKPKDTLMISRTPEVTCVVVDVSHEDPEVKFNWYVDGVEVHNAKTKPREEQYNSTYRVVSVLTVLHQDWLNGKEYKCKVSNKALPSSIEKTISKAKGQPREPQVYTLPPSREEMTKNQVSLTCLVKGFYPSDIAVEWESNGQPENNYKTTPPVLDSDGSFFLYSKLTVDKSRWQQGNVFSCSVMHEALHNHYTQKSLSLSPG
notes: as for B4
Turning to B5, the binding result in [11], in experiment [6] and in experiment [8] was “no binding” each time. The values for the Kd in [9], in [10] and in experiment [12] were 0.0019 µM, 0.46 µM and 1.1 µM, respectively.

B6: H135 (Fc fusion)
chain (part 1 of 2): QVQLQESGGGSVQAGGSLKLTCAASGYIFNSCGMGWYRQSPGRERELVSRISGDGDTWHKESVKGRFTISQDNVKKTLYLQMNSLKPEDTAVYFCAVCYNLETYWGQGTQVTVSS
chain (part 2 of 2): APEAEGAPSVFLFPPKPKDTLMISRTPEVTCVVVDVSHEDPEVKFNWYVDGVEVHNAKTKPREEQYNSTYRVVSVLTVLAQDWLNGKEYKCKVSNKALPSSIEKTISKAKGQPREPQVYTLPPSREEMTKNQVSLTCLVKGFYPSDIAVEWESNGQPENNYKTTPPVLDSDGSFFLYSKLTVDKSRWQQGNVFSCSVMHEALHNHYTQKSLSLSPG
notes: as for B4
As for B6, the binding result in [11], in [6], in experiment [7] and in experiment [8] was “no binding” in each case. In experiment [10], binding was characterised by a dissociation constant (Kd) of 1.2 µM.

B7: D138 (Fc fusion)
chain (part 1 of 2): EVQLVESGGGEVQPGGSLRLSCAASGSIFSINAMGWYRQAPGKQRELVAGFTGDTNTIYAESVKGRFTISRDNAKNTVYLQMSSLRAEDTAVYYCAADVQLFSRDYEFYWGQGTLVTVKP
chain (part 2 of 2): APEAEGAPSVFLFPPKPKDTLMISRTPEVTCVVVDVSHEDPEVKFNWYVDGVEVHNAKTKPREEQYNSTYRVVSVLTVLHQDWLNGKEYKCKVSNKALPSSIEKTISKAKGQPREPQVYTLPPSREEMTKNQVSLTCLVKGFYPSDIAVEWESNGQPENNYKTTPPVLDSDGSFFLYSKLTVDKSRWQQGNVFSCSVMHEALHNQYTQKSLSLSPG
notes: as for B4
For the molecule B7, the binding result in [6] and in [8] was “no binding” throughout. For the same molecule, the Kd in experiment [10] was found to be 0.52 µM; in [12] it was 0.77 µM.

B8: D136 (Fc fusion)
chain (part 1 of 2): EVQLVESGGGEVQPGGSLRLSCAASGSIFSINAMGWYRQAPGKQRELVAGFTGDTNTIYAESVKGRFTISRDNAKNTVYLQMSSLRAEDTAVYYCAADVQLFSRDYEFYWGQGTLVTVKP
chain (part 2 of 2): APEAEGAPSVFLFPPKPKDTLMISRTPEVTCVVVDVSHEDPEVKFNWYVDGVEVHNAKTKPREEQYNSTYRVVSVLTVLAQDWLNGKEYKCKVSNKALPSSIEKTISKAKGQPREPQVYTLPPSREEMTKNQVSLTCLVKGFYPSDIAVEWESNGQPENNYKTTPPVLDSDGSFFLYSKLTVDKSRWQQGNVFSCSVMHEALHNHYTQKSLSLSPG
notes: as for B4
As to B8, the binding result in [11], in experiment [6] and in experiment [8] was “no binding” throughout. In addition, the results for the Kd in experiment [10] and in experiment [12] were 0.57 µM and 2.2 µM, respectively.

B9: H137 (Fc fusion)
chain (part 1 of 2): QVQLQESGGGSVQAGGSLKLTCAASGYIFNSCGMGWYRQSPGRERELVSRISGDGDTWHKESVKGRFTISQDNVKKTLYLQMNSLKPEDTAVYFCAVCYNLETYWGQGTQVTVSS
chain (part 2 of 2): APEAEGAPSVFLFPPKPKDTLMISRTPEVTCVVVDVSHEDPEVKFNWYVDGVEVHNAKTKPREEQYNSTYRVVSVLTVLHQDWLNGKEYKCKVSNKALPSSIEKTISKAKGQPREPQVYTLPPSREEMTKNQVSLTCLVKGFYPSDIAVEWESNGQPENNYKTTPPVLDSDGSFFLYSKLTVDKSRWQQGNVFSCSVMHEALHNQYTQKSLSLSPG
notes: as for B4
Regarding B9, the binding result in experiment [11], in experiment [6], in experiment [7] and in experiment [8] was “no binding” in each case. This molecule also came in with a Kd in experiment [10] of 1.2 µM.
